The target in one series is TNF-alpha (UniProt P01375). Kind of series: BLI. Conditions: SEQ 37 part DNA primer, selected region TNA 3'-2', 24 C, 2 mM CaCl2.
The target of series [1] is SARS-CoV-2 spike glycoprotein subunit 1 (S1) (SARS-CoV-2) (UniProt P0DTC2). Kind of series: BLI. In general terms: Biolayer interferometry detects binding as a change in optical thickness at a sensor tip.
Where [2] appears, read: all T = C5-benzyl carboxamide U (UPhe).
Setting [3] is: all T = C5-indole carboxamide U (UTrp).
The mark [4] stands for this setting: SEQ 37 part DNA primer, selected region TNA 3'-2', all T = C5-indole carboxamide U (UTrp).
Where [5] appears, read: SEQ 37 part DNA primer, selected region TNA 3'-2', all T = C5-benzyl carboxamide U (UPhe).

Where two headings read alike, the source gives them in different places.

TNF-alpha, sequence (P01375 77-233): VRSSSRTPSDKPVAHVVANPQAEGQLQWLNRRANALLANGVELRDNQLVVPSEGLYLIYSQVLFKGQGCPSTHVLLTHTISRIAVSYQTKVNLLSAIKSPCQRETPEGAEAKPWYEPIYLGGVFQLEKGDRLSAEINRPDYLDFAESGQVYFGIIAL

As for “GTCCCCTTGGGGATACCACCACGAGTAGGCCGCATTATGATGATTTAAACTGTTTCATGC [TNF Trp-3]”, the Kd in the series with TNF-alpha (all T = C5-indole carboxamide U (UTrp), three replicates 16, 17, 27 nM) came to 20 nM.

For the sequence “GTCCCCTTGGGGATACCACCGCGGGGGGTGTTGTGTAACTGTTTTTTGCCGGAAAGACGC [TNF standard entry 1]”, in the series with TNF-alpha (natural bases, R2 0.88), the Kd turned out to be 42 nM.

Regarding “GTCCCCTTGGGGATACCACCTGGCGAGGGGTAGTGAGCTGACGGATAGGGCTAGTGGAAC [S1 standard entry 1]”, the dissociation constant (Kd) in series [1] (SEQ 37 part DNA primer, selected region alpha-L-threofuranosyl (TNA) 3'-2', natural bases) is 17.6 nM.

With “GTCCCCTTGGGGATACCACCCGTGCACGATCTAGCCAGTGCTCGCTTGAAATGGGCGCAG [S1 Standard-2]”, the Kd in series [1] (SEQ 37 part DNA primer, selected region TNA 3'-2', natural bases) worked out at 34 nM.

Regarding “GTCCCCTTGGGGATACCACCACTTTTGCTTGAGATTCGGCGCATTTCGTGCAGTGATGTA [TNF Phe entry 5]”, the dissociation constant (Kd) with TNF-alpha (setting [2]) was found to be 27 nM.

“GTCCCCTTGGGGATACCACCGACGCTATGACTGGTATGGTGTGTGAGCTTCGAGGTCTGA [TNF Standard-2]”: the Kd with TNF-alpha (natural bases, three replicates 109, 76, 62 nM, approximate, poor curve fit) was found to be 82 nM.

In the series with TNF-alpha (setting [3]), “GTCCCCTTGGGGATACCACCTCACGTCTGTTGTACACTTGTGCAATGCAAGGACGGAAAA [TNF Trp entry 11]” came in with a Kd of 12 nM.

In the series with TNF-alpha (setting [2]), “GTCCCCTTGGGGATACCACCCTTAGGTCGGCCTTTGACCATTCGTGCAAAACTTAGCGAA [TNF Phe entry 6]” gave a Kd of 41 nM.

As to “GTCCCCTTGGGGATACCACCGAATGCGCTTGAGCGCGCCCGATGATATAGCGAACCAAGC [TNF Phe entry 7]”, in the series with TNF-alpha (setting [2]), the equilibrium dissociation constant (Kd) amounted to 54 nM.

As for “GTCCCCTTGGGGATACCACCTGACACCTGGCACGAATGCGCAGACGACGTTGTTTTGCGT [TNF Phe entry 4]”, the Kd with TNF-alpha (setting [2]) worked out at 19 nM.

The sequence “GTCCCCTTGGGGATACCACCTAAGGAAAGGGGAGCGGGTAGGAGGTTCGTCGGGTGCGAC [S1 Trp entry 19]” showed a Kd in series [1] (setting [4]) of 4.2 nM.

“GTCCCCTTGGGGATACCACCAGAACTTCGTCAGCGTCTTACCGAGTCCAAGGACTGGCTA [S1 Phe entry 12]” gave a Kd in series [1] (setting [5]) of 28.8 nM.

With “GTCCCCTTGGGGATACCACCATCGAGTTGTGACGTTAACGATAATAGCCCGCTCCGATTC [S1 Phe entry 13]”, the dissociation constant (Kd) in series [1] (setting [5]) came out at 31 nM.

Sequence “GTCCCCTTGGGGATACCACCATTGTGCGAAGTATACATAGCAGATGCGTGACATAACAAG [S1 Trp entry 20]” displayed a Kd in series [1] (setting [4]) of 5.1 nM.

In the case of “GTCCCCTTGGGGATACCACCGCGGCCAGATCCCCGATATGTTAACGTCCTTTTATGCGGG [TNA 913]”, the Kd in series [1] (SEQ 37 part DNA primer, selected region TNA 3'-2', all T = C5-indole carboxamide U (UTrp; from doped Trp-1 library)) amounted to 0.85 nM.

With “GTCCCCTTGGGGATACCACCGGTGTAATAAGGAGAGTACGTCGTTTGGTGGGACCGGGTA [S1 Phe entry 15]”, the dissociation constant Kd in series [1] (setting [5]) is 39 nM.

The sequence “GTCCCCTTGGGGATACCACCTATTGGAACTCCCGAGCAGGCTGTCCCATGGAAGACTACA [S1 Phe entry 3]” gave a dissociation constant (Kd) in series [1] (setting [5]) of 2.6 nM.

In series [1] (setting [5]), “GTCCCCTTGGGGATACCACCGAGAGTCATAGTAGTTCACGGGTCTGCAGCTTACGCATGT [S1 Phe entry 6]” showed a Kd of 11.3 nM.

With “GTCCCCTTGGGGATACCACCGGCACTATCGATTATCGTGCGCATTGGTTGTGTCCAGGCT [TNF Trp entry 10]”, the Kd with TNF-alpha (setting [3]) was 7.3 nM.

Regarding “GTCCCCTTGGGGATACCACCAGAGCAAGTCATGATCGCGAGTTTAGCTTTTTCATTTCCC [TNF Phe entry 9]”, in the series with TNF-alpha (setting [2]), the Kd came out at 86 nM.

For the sequence “GTCCCCTTGGGGATACCACCCGTACAACTCCGGTTTCGGGCGGCCCGTTCTTCAGTTTGA [S1 Trp entry 18]”, the Kd in series [1] (setting [4]) is 2.7 nM.

“GTCCCCTTGGGGATACCACCTACATTACGCGTTAGCGTTAATGGGTATGTCCGGACAGTG [S1 Phe entry 14]” had a Kd in series [1] (setting [5]) of 36 nM.

On to “GTCCCCTTGGGGATACCACCTTAATTTTGAGATCTTTGTCGAGTTGCTCGGTGAAAAGTC [TNF Phe entry 8]”, for which the dissociation constant Kd in the series with TNF-alpha (setting [2]) was 70 nM.

As for “GTCCCCTTGGGGATACCACCACGATGGACTTGGGTAGCTAGTCAGGTTAGGCTGTTTGGA [S1 Phe entry 11]”, in series [1] (setting [5]), the dissociation constant (Kd) was 22.1 nM.

For the sequence “GTCCCCTTGGGGATACCACCTTAGTATTATTATGGGTGCGTGAGTTTCCAAGAAGCGCGT [TNA 949]”, the Kd in series [1] (SEQ 37 part DNA primer, selected region TNA 3'-2', threomer base modification (side chain not stated, probably UTrp)) worked out at 0.7 nM.

In the case of “GTCCCCTTGGGGATACCACCAAACTGTTGGGACTTGTAATGTCGTCATCAGCTAAGAGTC [S1 Trp entry 22]”, the Kd in series [1] (setting [4]) was determined as 21.1 nM.

In turn, “GTCCCCTTGGGGATACCACCAGGCTTATGAAATCTTATGTGAACCGGGCATACGGGCGAT [S1 Phe entry 4]” showed a dissociation constant (Kd) in series [1] (setting [5]) of 5.2 nM.

Regarding “GTCCCCTTGGGGATACCACCTTGGCGAGATCCCCTATACGTGAGCTTCCTTTTATCCTTT [S1 Trp-1]”, in series [1], the Kd turned out to be 3.1 nM.

As for “GTCCCCTTGGGGATACCACCTTTCTATGCATCTCGGGGATGCGGGATATAAAAGAGAGAC [S1 Trp entry 23]”, in series [1] (setting [4]), the dissociation constant Kd was determined as 29.1 nM.

In the series with TNF-alpha (natural bases, R2 0.88), “GTCCCCTTGGGGATACCACCCGCGGCGTTGCGTAGCGCCAATCCTGCACAGAGGCGGGCG [TNF standard entry 3]” came in with a dissociation constant Kd of 141 nM.

As for “GTCCCCTTGGGGATACCACCTGTACGCCATATAGGCAGTCATCGAGCAACGAAGTAATGG [S1 Phe entry 9]”, the Kd in series [1] (setting [5]) was determined as 16.7 nM.

A word on the Kd: it is the constant that tells how readily two partners part at equilibrium. A higher Kd goes with weaker binding.
